From the supplement of paper PMC10567573

B1: CPN1 (parent)
chain: RGVRRTASTPTPDDKLFQKLAKVY

Variants of: B1
Assay: protein stability index of a GFP-peptide fusion (GPS, HEK-293T) (PSI 1-6); higher = more stable
Settings: c terminus: a fixed tail appended
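Further: lentivirally expressed fusions sorted by FACS into six bins by GFP to DsRed ratio, PSI derived from sequencing read proportions per bin multiplied by bin number.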

Protein stability index of substitutions, site by site:
P10: K 1.8, L 1.02, F 2.19, I 1.48, G 2.27, D 2.49, T 1.75, S 2.09, A 2.13, Y 1.79, H 1.34, Q 1.78, C 2.07, E 2.81, W 1.36, R 1.74, V 1.79, N 2.06, M 1.89
T9: W 2.02, P 3, Y 1.52, N 1.54, Q 1.84, R 1.3, S 1.94, V 1.97
D13: V 1.78, W 1.61, Q 1.94, C 1.2, M 2.59, F 1.99, Y 2.24, G 2.37, L 1.65, S 2.02, K 1.88, N 1.89, E 1.24, A 1.97, H 2.08, T 1.27, R 1.63
D14: L 1.64, V 2.19, E 1.95, C 1.56, K 2.35, Y 1.48, S 2.63, W 1.68, F 1.75, T 2.38, N 1.54, Q 2.35, A 2.05, H 2.32, R 1.93, M 2.45, G 2.78, I 1.23
T11: M 2.03, G 2.54, C 1.83, K 2.56, S 1.86, E 2.1, D 2.26, N 2.23, Q 2.29, F 1.92, H 2.04, L 1.52, W 1.92, Y 2.25, R 1.82, A 2.29, V 1.67, I 1.71
L16: C 2.52, A 2.65, S 2.95, E 2.68, R 3.34, I 2.61, P 3.29, N 3.32, M 2.65, T 3.43, K 3.56, Y 1.92, G 3.29, F 1.9, Q 3.31, V 2.29, H 2.64, D 4.21, W 1.85
K15: C 1.95, M 1.33, I 1.76, H 1.75, G 2, Q 2.08, S 2.02, D 1.99, P 2.12, Y 1.63, T 1.7, E 2.2, W 1.93, A 1.58, N 1.7, L 1.8, R 1.78, F 3.23
Q18: L 1.69, C 2.6, N 1.8, K 1.84, G 2.29, H 2.02, M 1.47, E 2.19, A 1.93, F 1.43, I 1.75, D 2.32
P12: M 2.01, D 2.37, W 2.48, R 1.89, V 1.68, K 2.32, Y 2.94, T 1.81, A 2.06, C 1.65, I 1.89, N 1.98, F 2.38, L 1.44, Q 2.05, E 3.13, S 3.04, G 2.4, H 1.94
F17: W 2.26, L 2.15, E 3.95, G 3.25, N 2.88, Y 2.28, D 3.32, A 3.19, C 2.96, H 2.63, R 3.43, P 2.84, Q 3.21, S 2.94, I 2.53, T 3.67, M 3, V 2.58, K 3.5
